Measurements from PMC1140370.
Read-outs that look alike come from different tables or passages of the source.

Experiments:
Assay in all cases: EMSA
Mcm4/6/7 complex [1] = target: T1, Mcm4/6/7 complex (mouse, UniProt P49717;Q61881;P97311 1-862;1-719;1-821)
Mcm4/6/7 complex [2] = target: T1, Mcm4/6/7 complex; remark: listed apart in the source
Mcm4/6/7 complex [3] = target: T1, Mcm4/6/7 complex; remark: listed apart in the source
Mcm4/6/7 complex [4] = target: T1, Mcm4/6/7 complex; remark: listed apart in the source
Mcm4/6/7 complex [5] = target: T1, Mcm4/6/7 complex; remark: listed apart in the source

T1 sequence (P49717 whole entry, chain 1 of 3): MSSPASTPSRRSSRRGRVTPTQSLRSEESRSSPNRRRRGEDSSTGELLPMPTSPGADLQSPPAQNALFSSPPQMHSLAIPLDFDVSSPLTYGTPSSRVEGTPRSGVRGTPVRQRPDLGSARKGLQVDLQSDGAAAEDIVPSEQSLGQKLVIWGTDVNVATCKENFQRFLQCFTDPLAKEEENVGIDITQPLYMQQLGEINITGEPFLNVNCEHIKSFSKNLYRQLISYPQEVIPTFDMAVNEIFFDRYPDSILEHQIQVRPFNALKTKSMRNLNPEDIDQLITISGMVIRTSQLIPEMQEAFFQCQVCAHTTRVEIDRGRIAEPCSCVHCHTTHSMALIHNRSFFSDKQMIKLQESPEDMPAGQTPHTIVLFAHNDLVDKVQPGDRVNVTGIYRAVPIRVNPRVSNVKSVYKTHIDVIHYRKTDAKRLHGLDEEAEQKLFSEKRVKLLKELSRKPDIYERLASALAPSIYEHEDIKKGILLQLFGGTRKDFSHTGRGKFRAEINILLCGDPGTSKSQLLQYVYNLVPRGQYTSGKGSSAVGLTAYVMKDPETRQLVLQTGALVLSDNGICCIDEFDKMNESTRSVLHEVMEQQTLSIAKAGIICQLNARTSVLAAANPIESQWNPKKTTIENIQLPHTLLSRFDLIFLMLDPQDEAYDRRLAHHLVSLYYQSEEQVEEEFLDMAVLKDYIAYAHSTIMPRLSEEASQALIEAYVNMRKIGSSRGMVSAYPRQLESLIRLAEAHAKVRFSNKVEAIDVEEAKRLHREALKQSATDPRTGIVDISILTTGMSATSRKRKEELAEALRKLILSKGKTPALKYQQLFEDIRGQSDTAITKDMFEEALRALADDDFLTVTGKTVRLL
T1 sequence (Q61881 whole entry, chain 2 of 3): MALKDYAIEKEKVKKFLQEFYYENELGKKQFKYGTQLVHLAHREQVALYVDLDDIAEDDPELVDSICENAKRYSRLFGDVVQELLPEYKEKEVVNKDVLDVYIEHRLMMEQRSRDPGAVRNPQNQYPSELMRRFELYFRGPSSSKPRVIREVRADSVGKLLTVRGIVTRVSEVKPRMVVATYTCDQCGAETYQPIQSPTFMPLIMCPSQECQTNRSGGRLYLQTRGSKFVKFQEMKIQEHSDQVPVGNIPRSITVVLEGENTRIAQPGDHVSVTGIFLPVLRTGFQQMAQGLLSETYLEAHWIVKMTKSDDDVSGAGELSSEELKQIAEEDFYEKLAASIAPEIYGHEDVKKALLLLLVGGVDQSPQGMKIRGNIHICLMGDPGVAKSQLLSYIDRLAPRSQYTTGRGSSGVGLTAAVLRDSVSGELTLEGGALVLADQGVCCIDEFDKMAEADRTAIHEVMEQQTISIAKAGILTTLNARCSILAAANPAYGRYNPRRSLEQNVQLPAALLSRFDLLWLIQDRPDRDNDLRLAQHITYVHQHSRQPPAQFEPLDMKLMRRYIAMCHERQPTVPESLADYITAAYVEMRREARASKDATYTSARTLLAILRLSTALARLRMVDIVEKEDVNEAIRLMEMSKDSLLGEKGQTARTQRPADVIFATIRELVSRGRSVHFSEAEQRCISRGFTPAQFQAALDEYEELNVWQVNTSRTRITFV
T1 sequence (P97311 whole entry, chain 3 of 3): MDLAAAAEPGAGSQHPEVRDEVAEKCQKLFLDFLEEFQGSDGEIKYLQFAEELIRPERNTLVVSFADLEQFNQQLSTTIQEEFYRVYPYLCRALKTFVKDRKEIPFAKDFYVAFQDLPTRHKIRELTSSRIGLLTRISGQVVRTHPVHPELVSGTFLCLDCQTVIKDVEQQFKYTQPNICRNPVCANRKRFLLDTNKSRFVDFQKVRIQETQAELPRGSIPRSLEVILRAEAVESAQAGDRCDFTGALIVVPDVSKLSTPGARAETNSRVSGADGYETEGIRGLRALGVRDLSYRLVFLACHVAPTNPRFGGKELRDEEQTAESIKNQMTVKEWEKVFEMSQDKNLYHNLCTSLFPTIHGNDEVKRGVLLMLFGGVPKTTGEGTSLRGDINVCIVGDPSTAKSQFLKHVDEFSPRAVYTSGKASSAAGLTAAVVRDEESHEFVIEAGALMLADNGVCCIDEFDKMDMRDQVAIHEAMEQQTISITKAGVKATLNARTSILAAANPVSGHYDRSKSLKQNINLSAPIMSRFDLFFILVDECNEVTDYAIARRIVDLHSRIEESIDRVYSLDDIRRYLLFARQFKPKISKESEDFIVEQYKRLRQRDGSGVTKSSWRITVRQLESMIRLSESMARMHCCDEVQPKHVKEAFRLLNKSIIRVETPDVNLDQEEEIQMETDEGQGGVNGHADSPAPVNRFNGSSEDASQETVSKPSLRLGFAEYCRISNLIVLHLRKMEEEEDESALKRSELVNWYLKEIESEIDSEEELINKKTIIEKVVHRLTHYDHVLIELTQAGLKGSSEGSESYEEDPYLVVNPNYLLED

B1: 3' dT50-extension (mixed)
DNA 1: GTTTTCCCAGTCACGACGTTGTAAAACGACGGCCAGTTTTTTTTTTTTTTTTTTTTTTTTTTTTTTTTTTTTTTTTTTTTTTTTTTT
DNA 2: ACTGGCCGTCGTTTTACAACGTCGTGACTGGGAAAAC
- binding result (Mcm4/6/7 complex [1]): binds

B2: Bub-T20 (mixed)
DNA 1: GTTTTCCCAGTCACGACGTTGTAAAACGACTTTTTTTTTTTTTTTTTTTTTACCGAGCTCGAATTCGTAATCATGGTCAT
DNA 2: ATGACCATGATTACGAATTCGAGCTCGGTATTTTTTTTTTTTTTTTTTTTGTCGTTTTACAACGTCGTGACTGGGAAAAC
- binding result (Mcm4/6/7 complex [2]): binds

B3: Bub-T50 (mixed)
DNA 1: GTTTTCCCAGTCACGACGTTGTAAAACGACTTTTTTTTTTTTTTTTTTTTTTTTTTTTTTTTTTTTTTTTTTTTTTTTTTTACCGAGCTCGAATTCGTAATCATGGTCAT
DNA 2: ATGACCATGATTACGAATTCGAGCTCGGTATTTTTTTTTTTTTTTTTTTTTTTTTTTTTTTTTTTTTTTTTTTTTTTTTTGTCGTTTTACAACGTCGTGACTGGGAAAAC
- binding result (Mcm4/6/7 complex [3]): binds

B4: Bub-T30 (mixed)
DNA 1: GTTTTCCCAGTCACGACGTTGTAAAACGACTTTTTTTTTTTTTTTTTTTTTTTTTTTTTTTACCGAGCTCGAATTCGTAATCATGGTCAT
DNA 2: ATGACCATGATTACGAATTCGAGCTCGGTATTTTTTTTTTTTTTTTTTTTTTTTTTTTTTGTCGTTTTACAACGTCGTGACTGGGAAAAC
- binding result (Mcm4/6/7 complex [4]): binds

B5: A-fork[3'] (mixed)
DNA 1: CGCATCGCCCACCTGCCTCTGGTGGAGGAGCTGCGTGCACTGAGGCAGTTGCACCTGAACCAGCTGATCCGTGCCGCTGGCGTGGTGGCCGCCTGCGCCGGAGTC
DNA 2: GGGTGAACCTGCAGGTGGGCAAAGATGTCCTAGCAAGGCACTGGTAGAATGGTGCAACTGCCTCAGTGCACGCAGCTCCTCCACCAGAGGCAGGTGGGCGATGCG
DNA 3: GACTCCGGCGCAGGCGGCCACCACGCCAGCGGCACGGATCAGCTGGTTCA
- binding result (Mcm4/6/7 complex [5]): binds

B6: A-fork[5'] (mixed)
DNA 1: B5 DNA 1
DNA 2: B5 DNA 2
DNA 3: ATTCTACCAGTGCCTTGCTAGGACATCTTTGCCCACCTGCAGGTTCACCC
- binding result (Mcm4/6/7 complex [5]): binds

B7: Bub-T40 (mixed)
DNA 1: GTTTTCCCAGTCACGACGTTGTAAAACGACTTTTTTTTTTTTTTTTTTTTTTTTTTTTTTTTTTTTTTTTTACCGAGCTCGAATTCGTAATCATGGTCAT
DNA 2: ATGACCATGATTACGAATTCGAGCTCGGTATTTTTTTTTTTTTTTTTTTTTTTTTTTTTTTTTTTTTTTTGTCGTTTTACAACGTCGTGACTGGGAAAAC
- binding result (Mcm4/6/7 complex [3]): binds
